Experiment [1] addresses gp120 of HIV-1 primary isolate BR004 (clade C) (HIV-1 strain BR004). In words: cell-based or functional assay.
Experiment [2] concerns the target gp120 of HIV-1 primary isolate SF-162 (clade B) (HIV-1 strain SF-162). Briefly: cell-based or functional assay.

In experiment [1], IgG clone b12 (antibody) had an IC50, HIV-1 neutralization (p24, PBMC hosts) (µg Ab fragment/ml) of 9 and an IC90, HIV-1 neutralization (p24, PBMC hosts) (µg Ab fragment/ml) of 333. Besides, in experiment [2], the IC50, HIV-1 neutralization (p24, PBMC hosts) (µg Ab fragment/ml) worked out at 1.1 and the IC90, HIV-1 neutralization (p24, PBMC hosts) (µg Ab fragment/ml) turned out to be 14.1.

These data come from patent US8246957.
